Measured values reported in PMC12615798.

Biological target: cystatin C^EX (human) (UniProt P01034)
Assay: ELISA; two-fold serial dilutions of cystatin C^EX coated on the plate overnight at 4 °C, 10 μg/mL ECD-Fc added for 2 h at room temperature, anti-human-IgG-Fc-HRP

UniProt P01034, sequence (P01034 27-146): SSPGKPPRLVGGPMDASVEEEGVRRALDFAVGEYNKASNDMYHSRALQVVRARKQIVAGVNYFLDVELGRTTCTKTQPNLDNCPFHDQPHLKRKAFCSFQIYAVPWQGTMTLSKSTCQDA

EC50	Substance
22.8 nM	LILRB2 ECD-Fc (commercial) (from UniProt Q8N423 22-460) (Fc fusion)
1180 nM	LILRB5 ECD-Fc (commercial) (from UniProt O75023 24-458) (Fc fusion)
